Ends that are not written are not given here.

Here are results for 2 molecules from patent US20040116653A1 (JARROW FORMULAS, published 2004).

The assay concerns the target human CD4 on cells (MT-2, MT-4 cells; mouse SR.hCD4 cells transfected with human CD4) (human, UniProt P01730 26-458). Nature of the assay: cell-based or functional assay.

Turning to SGPGTTKRFPETVLARCVKYTEIH (also: biotin conjugated in ELISA, site not given here) [synthetic soluble peptide corresponding to amino acids 51-74 of CD38 (CD3851-74)], the “EC50, inhibition of HIV-1IIIB replication in MT-4 cells (p24 ELISA, day 3)” value stood at 2.2 µM.

B1: octameric branched peptide presenting the GPGTTK sequence (GPGTTK MBP) (peptide)
peptide 1: GPGTTK
peptide 2: GPGTTK
peptide 3: GPGTTK
peptide 4: GPGTTK
peptide 5: GPGTTK
peptide 6: GPGTTK
peptide 7: GPGTTK
peptide 8: GPGTTK
modifications: Each of the eight arms is bound through its C-terminus (Lys 6) to an 8-branching lysine core (Map resin), which cannot be written as a linear chain. The peptide was conjugated with biotin for the rshCD4 ELISA; the site is not stated.
With B1, the “EC50, inhibition of HIV-1IIIB replication in MT-4 cells (p24 ELISA, day 3)” value is 4.3 µM.
